Measurements from article doi:10.1101/2024.06.27.600973.

Target: NY-ESO-1 peptide on HLA-A*02:01 (human)
Assay: data from [38–40]

- Kd: 10 µM
Substance: 1G4
